Data published in the FLAb antibody collection (doi:10.7554/elife.23156).

B1: scFv; the commonest letter at each place (parent)
chain 1: EVKLDETGGGLVQPGRPMKLSCVASGFTFSDYWMNWVRQSPEKGLEWVAQIRNKPYNYETYYSDSVKGRFTISRDDSKSSVYLQMNNLRVEDMGIYYCTGSYYGMDYWGQGTSVTVS
chain 2: DVVMTQTPLSLPVSLGDQASISCRSSQSLVHSNGNTYLRWYLQKPGQSPKVLIYKVSNRFSGVPDRFSGSGSGTDFTLKISRVEAEDLGVYFCSQSTHVPWTFGGGTKLEIK

What was measured:
[1] = variants of: B1; experiment: Kd (Tite-Seq); details: with fluorescein; format: scFv 4-4-20, heavy + light
[2] = variants of: B1; experiment: yeast surface expression (ratio to wild type); higher = more expressed; details: format: scFv 4-4-20, heavy + light

| Variant | Kd [1] [µM] | yeast surface expression [2] |
| --- | --- | --- |
| chain 1 M105Y D106H W108L | ≥ 10 | 0.362 |
| chain 1 M105I W108G | ≥ 10 | 0.529 |
| chain 1 N35T V37P | ≥ 10 | 0.726 |
| chain 1 M105F D106C | ≥ 10 | 1.03 |
| chain 1 M105F D106L | ≥ 10 | 0.356 |
| chain 1 M105K Y107L G109V | ≥ 10 | 0.223 |
| chain 1 N35Y W36Y V37D | ≥ 10 | 1.04 |
| chain 1 N35W V37Q | ≥ 10 | 0.372 |
| chain 1 N35D W36V | ≥ 10 | 0.668 |
| chain 1 M105P D106E | ≥ 10 | 0.7 |
| chain 1 N35F V37D | ≥ 10 | 0.704 |
| chain 1 N35F V37A | ≥ 10 | 0.871 |
| chain 1 N35F V37S | ≥ 10 | 0.884 |
| chain 1 M105E G109W | ≥ 10 | 0.278 |
| chain 1 M105Y W108N | ≥ 10 | 0.301 |
| chain 1 M105Y W108R | ≥ 10 | 0.286 |
| chain 1 N35E W36E | ≥ 10 | 1.23 |
| chain 1 N35Q W36M | ≥ 10 | 0.504 |
| chain 1 M105T Y107C | ≥ 10 | 0.675 |
| chain 1 M105T Y107D | ≥ 10 | 0.467 |
| chain 1 M105T Y107R | ≥ 10 | 0.527 |
| chain 1 M105T Y107N | ≥ 10 | 0.778 |
| chain 1 N35F W36Q | ≥ 10 | 0.38 |
| chain 1 S30D N35R | ≥ 10 | 0.195 |
| chain 1 S30D N35Q | ≥ 10 | 0.883 |
| chain 1 M105G W108N | ≥ 10 | 0.415 |

| Variant | Kd [1] [µM] | yeast surface expression [2] |
| --- | --- | --- |
| chain 1 M105S D106N | ≥ 10 | 0.443 |
| chain 1 M105S D106E | ≥ 10 | 1.32 |
| chain 1 M105K G109W | ≥ 10 | 0.118 |
| chain 1 S30D V37P | ≥ 10 | 0.55 |
| chain 1 N35L W36I | ≥ 10 | 0.256 |
| chain 1 N35L W36R | ≥ 10 | 0.352 |
| chain 1 N35V W36M | ≥ 10 | 0.488 |
| chain 1 S30G W33V | ≥ 10 | 1 |
| chain 1 S30C W36E | ≥ 10 | 0.214 |
| chain 1 M105R G109W | ≥ 10 | 0.232 |
| chain 1 M105R G109T | ≥ 10 | 0.344 |
| chain 1 S30F N35C | ≥ 10 | 0.555 |
| chain 1 S30F N35T | ≥ 10 | 0.588 |
| chain 1 S30F N35H | ≥ 10 | 0.53 |
| chain 1 S30C Y32V | ≥ 10 | 0.7 |
| chain 1 M105Q D106Q | ≥ 10 | 1.01 |
| chain 1 S30G W36L | ≥ 10 | 0.597 |
| chain 1 N35V V37Y | ≥ 10 | 0.727 |
| chain 1 M105Q G109Y | ≥ 10 | 0.231 |
| chain 1 M105Q G109W | ≥ 10 | 0.115 |
| chain 1 M105Q G109M | ≥ 10 | 0.216 |
| chain 1 M105Q G109H | ≥ 10 | 0.299 |
| chain 1 S30A W33N | ≥ 10 | 0.914 |
| chain 1 S30F W36D | ≥ 10 | 0.448 |
| chain 1 M105S Y107W | ≥ 10 | 0.826 |
| chain 1 S30A W36H | ≥ 10 | 0.457 |

| Variant | Kd [1] [µM] | yeast surface expression [2] |
| --- | --- | --- |
| chain 1 N35R W36P | ≥ 10 | 0.809 |
| chain 1 N35R W36K | ≥ 10 | 2.76 |
| chain 1 N35R W36R | ≥ 10 | 0.425 |
| chain 1 N35A W36P | ≥ 10 | 0.663 |
| chain 1 M105V G109Y | ≥ 10 | 0.227 |
| chain 1 M105V G109I | ≥ 10 | 0.203 |
| chain 1 M105P Y107H | ≥ 10 | 0.635 |
| chain 1 N35I | ≥ 10 | 0.652 |
| chain 1 N35T | ≥ 10 | 0.879 |
| chain 1 N35V | ≥ 10 | 0.596 |
| chain 1 N35Q | ≥ 10 | 0.814 |
| chain 1 N35F | ≥ 10 | 0.708 |
| chain 1 N35R | ≥ 10 | 0.534 |
| chain 1 N35C | ≥ 10 | 0.708 |
| chain 1 N35Y | ≥ 10 | 0.697 |
| chain 1 N35H | ≥ 10 | 0.793 |
| chain 1 N35L | ≥ 10 | 0.692 |
| chain 1 N35E | ≥ 10 | 0.802 |
| chain 1 N35P | ≥ 10 | 0.672 |
| chain 1 N35D | ≥ 10 | 0.922 |
| chain 1 N35M | ≥ 10 | 0.715 |
| chain 1 N35W | ≥ 10 | 0.6 |
| chain 1 N35S | ≥ 10 | 1.04 |
| chain 1 N35A | ≥ 10 | 0.902 |
| chain 1 S30D W33N | ≥ 10 | 1.07 |
| chain 1 N35P W36T | ≥ 10 | 0.338 |

More lines, main results first:

| Kd [1] [µM] | Variant | yeast surface expression [2] |
| --- | --- | --- |
| ≥ 10 | chain 1 S30H D31I | 0.573 |
| 0.021 | chain 1 M105R | 1 |
| 0.0335 | chain 1 M105I | 0.914 |
| 4.25 | chain 1 M105V | 0.993 |
| 0.0233 | chain 1 M105N | 0.844 |
| 0.0423 | chain 1 M105Q | 1.23 |
| 0.945 | chain 1 M105F | 0.745 |
| ≥ 10 | chain 1 M105S | 0.889 |
| 0.0129 | chain 1 M105Y | 0.866 |
| 0.00519 | chain 1 M105L | 0.924 |
| ≥ 10 | chain 1 M105G | 0.761 |
| ≥ 10 | chain 1 M105P | 0.648 |
| ≥ 10 | chain 1 M105H | 1.06 |
| 0.00251 | chain 1 M105W | 0.648 |
| 0.00546 | chain 1 M105K | 1.02 |
| ≥ 10 | chain 1 M105T | 1 |
| 0.000724 | chain 1 M105I W108V | 0.782 |
| 0.021 | chain 1 N35W V37G | 1.18 |
| 0.000333 | chain 1 M105R W108L | 0.585 |

| Kd [1] [µM] | Variant | yeast surface expression [2] |
| --- | --- | --- |
| 7.33 | chain 1 M105R W108A | 0.498 |
| 1.72 | chain 1 M105L Y107V | 1.08 |
| 2.34 | chain 1 M105L Y107I | 1.09 |
| 0.00158 | chain 1 S30A D31A V37C | 0.739 |
| 6.96 | chain 1 M105S D106S | 0.843 |
| 4.37 | chain 1 S30D V37F | 0.942 |
| 0.0162 | chain 1 M105Q Y107E W108T | 0.548 |
| 0.0507 | chain 1 M105Y G109S | 0.936 |
| 0.0434 | chain 1 S30C W36Y | 0.691 |
| 0.021 | chain 1 S30C W36G | 0.208 |
| 0.0808 | chain 1 M105Q D106S | 1.17 |
| 1.47 | chain 1 S30G W36S | 0.275 |
| 2.01 | chain 1 S30C V37D | 1.73 |
| 0.00239 | chain 1 S30E D31S | 0.987 |
| 0.000504 | chain 1 S30E D31N | 0.934 |
| 0.228 | chain 1 N35K | 0.806 |
| 0.0102 | chain 1 N35G | 0.989 |
| 7.33 | chain 1 N35P W36V | 1.08 |
| 0.00827 | chain 1 S30C M34V | 0.65 |
